No end group written: not given here. *: point of attachment. TAMRA = 5-carboxytetramethylrhodamine, CN(C)c1ccc2c(-c3ccc(C(=O)*)cc3C(=O)[O-])c3ccc(N(C)C)cc3[o+]c2c1
What was measured:
[1] = molecular target: HLA-A*68:02^WT on the surface of HeLaM-HLA-ABC^KO cells (human); experiment: flow cytometry on cells; competition: surface MHC-I pre-loaded with 10 nM fluorescent peptide in the presence of TAPBPR (100 nM for HLA-A*68:02 WT, 10 nM for N86Q and S88R), washed, then 0, 100 nM or 1000 nM recombinant TAPBPR for 30 min; loss of bound peptide against no TAPBPR
[2] = molecular target: HLA-A*68:02^N86Q on the surface of HeLaM-HLA-ABC^KO cells (human); experiment: as above
[3] = molecular target: HLA-A*68:02^S88R on the surface of HeLaM-HLA-ABC^KO cells (human); experiment: as above
[4] = molecular target: HLA-A*68:02^WT on the surface of HeLaM-HLA-ABC^KO cells (human); experiment: flow cytometry on cells; competition: cells treated with 1 μM soluble TAPBPR for 30 min at 37 °C, washed, then 0, 10 nM or 100 nM high-affinity peptide for 15 min (methods: 30 min); loss of bound TAPBPR (PeTe-4) against no peptide
[5] = molecular target: HLA-A*68:02^N86Q on the surface of HeLaM-HLA-ABC^KO cells (human); experiment: as above
[6] = molecular target: HLA-A*68:02^S88R on the surface of HeLaM-HLA-ABC^KO cells (human); experiment: as above

recombinant soluble TAPBPR^WT (lumenal domains, C-terminal His6) (from UniProt Q9BX59 19-405) (domain or fragment)
% of pre-loaded ETVSK*QSNV dissociated by 1 μM TAPBPR [1]: 30% | % loss of pre-loaded YVVPFVAK*V in the presence of TAPBPR (up to) [2]: 30% | % of pre-loaded ETVSK*QSNV dissociated by 100 nM TAPBPR [2]: 50% | % of pre-loaded ETVSK*QSNV dissociated by 1 μM TAPBPR [2]: 85% | % loss of pre-loaded YVVPFVAK*V in the presence of TAPBPR (up to) [3]: 50% | % of pre-loaded ETVSK*QSNV dissociated by 100 nM TAPBPR [3]: 75% | % of pre-loaded ETVSK*QSNV dissociated by 1 μM TAPBPR [3]: > 90%

YVVPFVAK(TAMRA)V [YVVPFVAK*V (TAMRA-labelled peptide specific for HLA-A*68:02)]
% of bound TAPBPR displaced by the peptide [4]: 92% | % of bound TAPBPR displaced by the peptide [5]: 86% | % of bound TAPBPR displaced by the peptide [6]: 83%

ETVSK(TAMRA)QSNV [ETVSK*QSNV (TAMRA-labelled peptide specific for HLA-A*68:02)]
% of bound TAPBPR dissociated by the peptide [4]: 85% | % of bound TAPBPR dissociated by the peptide [5]: 70% | % of bound TAPBPR dissociated by the peptide [6]: 60%
